Assay results: US20100143950A1
Several values for one entry are separate records, joined by “and”; a condition that tells them apart may be missing. Equal entries are not always repeated.

Legend:
[1] = biological target: C-reactive protein (CRP) (human) (UniProt P02741); assay: ELISA, purified CFH variant on plate-coated CRP
[2] = biological target: C-reactive protein (CRP) (human) (UniProt P02741); assay: ELISA, serum 1:1,000 on plate-coated CRP, detection with goat anti-human CFH

UniProt P02741, sequence (P02741 19-224 limits assumed): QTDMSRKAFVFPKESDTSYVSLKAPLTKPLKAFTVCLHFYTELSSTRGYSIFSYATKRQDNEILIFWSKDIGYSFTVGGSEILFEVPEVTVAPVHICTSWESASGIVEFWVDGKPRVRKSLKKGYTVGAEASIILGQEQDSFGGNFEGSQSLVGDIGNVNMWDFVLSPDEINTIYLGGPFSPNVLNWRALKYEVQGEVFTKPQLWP

OD492 [1]: 0.763 OD492
OD492 [2]: 0.532 OD492 and 0.609 OD492
Substance: Complement Factor H 402Y variant (CFH402Y), from human serum of TT homozygotes (from UniProt P08603 19-1231)
